Experimental data from the supplement of paper PMC12458215.
± gives the uncertainty stated by the source.

Test system: HEK293T
Experiment: plasma membrane surface immunostaining intensity (anti-HA, deep receptor scanning) (arbitrary fluorescence units); higher = higher plasma membrane expression

Sequence	plasma membrane surface immunostaining intensity (GPCR class: A (Olfactory))	also measured
MELRNSTLGSGFILVGILNDSGSPELLYATFTILYMLALTSNGLLLLAITIEARLHMPMYLLLGQLSLMDLLFTSVVTPKALADFLRRENTISFGGCALQMFLALTMGSAEDLLLAFMAYDRYVAICHPLKYMTLMSPRVCWIMVATSWILASLIAIGHTMYTMHLPFCVSWEIRHLLCEIPPLLKLACADTSRYELIIYVTGVTFLLLPISAIVASYTLVLFTVLRMPSNEGRKKALVTCSSHLIVVGMFYGAATFMYVLPSSFHSPKQDNIISVFYTIVTPALNPLIYSLRNKEVMRALRRVLGKYILLAHSTL [OR2AG2]	164 ± 69	–
MELWNFTLGSGFILVGILNDSGSPELLCATITILYLLALISNGLLLLAITMEARLHMPMYLLLGQLSLMDLLFTSVVTPKALADFLRRENTISFGGCALQMFLALTMGGAEDLLLAFMAYDRYVAICHPLTYMTLMSSRACWLMVATSWILASLSALIYTVYTMHYPFCRAQEIRHLLCEIPHLLKVACADTSRYELMVYVMGVTFLIPSLAAILASYTQILLTVLHMPSNEGRKKALVTCSSHLTVVGMFYGAATFMYVLPSSFHSTRQDNIISVFYTIVTPALNPLIYSLRNKEVMRALRRVLGKYMLPAHSTL [OR2AG1]	135 ± 23	–
MEMFTFLLTCIFLPLLRGHSLFTCEPITVPRCMKMAYNMTFFPNLMGHYDQSIAAVEMEHFLPLANLECSPNIETFLCKAFVPTCIEQIHVVPPCRKLCEKVYSDCKKLIDTFGIRWPEELECDRLQYCDETVPVTFDPHTEFLGPQKKTEQVQRDIGFWCPRHLKTSGGQGYKFLGIDQCAPPCPNMYFKSDELEFAKSFIGTVSIFCLCATLFTFLTFLIDVRRFRYPERPIIYYSVCYSIVSLMYFIGFLLGDSTACNKADEKLELGDTVVLGSQNKACTVLFMLLYFFTMAGTVWWVILTITWFLAAGRKWSCEAIEQKAVWFHAVAWGTPGFLTVMLLAMNKVEGDNISGVCFVGLYDLDASRYFVLLPLCLCVFVGLSLLLAGIISLNHVRQVIQHDGRNQEKLKKFMIRIGVFSGLYLVPLVTLLGCYVYEQVNRITWEITWVSDHCRQYHIPCPYQAKAKARPELALFMIKYLMTLIVGISAVFWVGSKKTCTEWAGFFKRNRKRDPISESRRVLQESCEFFLKHNSKVKHKKKHYKPSSHKLKVISKSMGTSTGATANHGTSAVAITSHDYLGQETLTEIQTSPETSMREVKADGASTPRLREQDCGEPASPAASISRLSGEQVDGKGQAGSVSESARSEGRISPKSDITDTGLAQSNNLQVPSSSEPSSLKGSTSLLVHPVSGVRKEQGGGCHSDT [FZD6]	–	plasma membrane surface immunostaining intensity (GPCR class: F): 329 ± 75
MENGSYTSYFILLGLFNHTRAHQVLFMMVLSIVLTSLFGNSLMILLIHWDHRLHTPMYFLLSQLSLMDVMLVSTTVPKMAADYLTGSKAISRAGCGAQIFFLPTLGGGECFLLAAMAYDRYAAVCHPLRYPTLMSWQLCLRMNLSCWLLGAADGLLQAVATLSFPYCGAHEIDHFFCETPVLVRLACADTSVFENAMYICCVLMLLVPFSLILSSYGLILAAVLHMRSTEARKKAFATCSSHVAVVGLFYGAAIFTYMRPKSHRSTNHDKVVSAFYTMFTPLLNPLIYSVKNSEVKGALTRCMGRCVALSRE [OR2T8]	132 ± 16	–
MENQSSISEFFLRGISAPPEQQQSLFGIFLCMYLVTLTGNLLIILAIGSDLHLHTPMYFFLANLSFVDMGLTSSTVTKMLVNIQTRHHTISYTGCLTQMYFFLMFGDLDSFFLAAMAYDRYVAICHPLCYSTVMRPQVCALMLALCWVLTNIVALTHTFLMARLSFCVTGEIAHFFCDITPVLKLSCSDTHINEMMVFVLGGTVLIVPFLCIVTSYIHIVPAILRVRTRGGVGKAFSTCSSHLCVVCVFYGTLFSAYLCPPSIASEEKDIAAAAMYTIVTPMLNPFIYSLRNKDMKGALKRLFSHRSIVSS [OR1N1]	119 ± 14	–
MENVTTMNEFLLLGLTGVQELQPFFFGIFLIIYLINLIGNGSILVMVVLEPQLHSPMYFFLGNLSCLDISYSSVTLPKLLVNLVCSRRAISFLGCITQLHFFHFLGSTEAILLAIMAFDRFVAICNPLRYTVIMNPQVCILLAAAAWLISFFYALMHSVMTAHLSFCGSQKLNHFFYDVKPLLELACSDTLLNQWLLSIVTGSISMGAFFLTLLSCFYVIGFLLFKNRSCRILHKALSTCASHFMVVCLFYGPVGFTYIRPASATSMIQDRIMAIMYSAVTPVLNPLIYTLRNKEVMMALKKIFGRKLFKDWQQHH [OR12D3]	148 ± 34	–
MEPAPSAGAELQPPLFANASDAYPSACPSAGANASGPPGARSASSLALAIAITALYSAVCAVGLLGNVLVMFGIVRYTKMKTATNIYIFNLALADALATSTLPFQSAKYLMETWPFGELLCKAVLSIDYYNMFTSIFTLTMMSVDRYIAVCHPVKALDFRTPAKAKLINICIWVLASGVGVPIMVMAVTRPRDGAVVCMLQFPSPSWYWDTVTKICVFLFAFVVPILIITVCYGLMLLRLRSVRLLSGSKEKDRSLRRITRMVLVVVGAFVVCWAPIHIFVIVWTLVDIDRRDPLVVAALHLCIALGYANSSLNPVLYAFLDENFKRCFRQLCRKPCGRPDPSSFSRAREATARERVTACTPSDGPGGGAAA [OPRD1]	–	plasma membrane surface immunostaining intensity (GPCR class: A): 6220 ± 99
MEPEINCSELCDSFPGQELDRRPLHDLCKTTITSSHHSSKTISSLSPVLLGIVWTFLSCGLLLILFFLAFTIHCRKNRIVKMSSPNLNIVTLLGSCLTYSSAYLFGIQDVLVGSSMETLIQTRLSMLCIGTSLVFGPILGKSWRLYKVFTQRVPDKRVIIKDLQLLGLVAALLMADVILLMTWVLTDPIQCLQILSVSMTVTGKDVSCTSTSTHFCASRYSDVWIALIWGCKGLLLLYGAYLAGLTGHVSSPPVNQSLTIMVGVNLLVLAAGLLFVVTRYLHSWPNLVFGLTSGGIFVCTTTINCFIFIPQLKQWKAFEEENQTIRRMAKYFSTPNKSFHTQYGEEENCHPRGEKSSMERLLTEKNAVIESLQEQVNNAKEKIVRLMSAECTYDLPEGAAPPASSPNKDVQAVASVHTLAAAQGPSGHLSDFQNDPGMAARDSQCTSGPSSYAQSLEGPGKDSSFSPGKEEKISDSKDFSDHLDSGCSQKPWTEQSLGPERGDQVPMNPSQSLLPERGGSDPQRQRHLENSEEPPERRSRVSSVIREKLQEVLQDLGLGPEASLSTAPSCHQQTWKNSAAFSPQKMPLSKELGFSPYMVRRRRAAQRARSHFPGSAPSSVGHRANRTVPGAHSRLHVQNGDSPSLAPQTTDSRVRRPSSRKPSLPSDPQDRPGTLEGSKQSQTEPEGARGSKAAFLRQPSGSGRAPSPAAPCLSKASPDLPEQWQLWPPVPSGCASLSSQHSYFDTESSSSDEFFCRCHRPYCEICFQSSSDSSDSGTSDTDPEPTGGLASWEKLWARSKPIVNFKDDLKPTLV [GPR156]	–	plasma membrane surface immunostaining intensity (GPCR class: C): 352 ± 30
MEPEKQTEISEFFLQGLSEKPEHQTLLFTMFLSTYLVTIIGNALIILAIITDSHLHTPMYFFLFNLSLVDTLLSSTTVPKMLANIQAQSRAIPFVGCLTQMYAFHLFGTMDSFLLAVMAIDRFVAIVHPQRYLVLMCSPVCGLLLGASWMITNLQSLIHTCLMAQLTFCAGSEISHFFCDLMPLLKLSGSDTHTNELVIFAFGIVVGTSPFSCILLSYIRIFWTVFKIPSTRGKWKAFSTCGLHLTVVSLSYGTIFAVYLQPTSPSSSQKDKAAALMCGVFIPMLNPFIYSIRNKDMKAALGKLIGKVAVPCPRPEQLLDVYHVPGSLLAARDTEMHPIPYPGGVQSLAGNRDME [OR1I1]	161 ± 47	–
MEPLNRTEVSEFFLKGFSGYPALEHLLFPLCSAMYLVTLLGNTAIMAVSVLDIHLHTPVYFFLGNLSTLDICYTPTFVPLMLVHLLSSRKTISFAVCAIQMCLSLSTGSTECLLLAITAYDRYLAICQPLRYHVLMSHRLCVLLMGAAWVLCLLKSVTEMVISMRLPFCGHHVVSHFTCKILAVLKLACGNTSVSEDFLLAGSILLLPVPLAFICLSYLLILATILRVPSAARCCKAFSTCLAHLAVVLLFYGTIIFMYLKPKSKEAHISDEVFTVLYAMVTTMLNPTIYSLRNKEVKEAARKVWGRSRASR [OR13J1]	140 ± 33	–
MEPRNQTSASQFILLGLSEKPEQETLLFSLFFCMYLVMVVGNLLIILAISIDSHLHTPMYFFLANLSLVDFCLATNTIPKMLVSLQTGSKAISYPCCLIQMYFFHFFGIVDSVIIAMMAYDRFVAICHPLHYAKIMSLRLCRLLVGALWAFSCFISLTHILLMARLVFCGSHEVPHYFCDLTPILRLSCTDTSVNRIFILIVAGMVIATPFVCILASYARILVAIMKVPSAGGRKKAFSTCSSHLSVVALFYGTTIGVYLCPSSVLTTVKEKASAVMYTAVTPMLNPFIYSLRNRDLKGALRKLVNRKITSSS [OR1M1]	130 ± 31	–
